# Test results as given in patent publication US20220380421A1 (University of California, published 2022).
# B1: GST-AcrIIA16_Lmo (other)
# chain: MGYIGTKRSERSQDAIEDYEVPLNHFNKDLIQAFIDENEAYDTLKTKKVRLWKFVAPRAGATSWHHTGTYYNKTDHYSLEKVADELLQNGDEWEEQFKAYVKEEQETATSEPVFLSVIKVQIWGGSMKRPKLVGHEVVMGVKKEGWLHAVSKATQSKYKLSANKVEMQKHYSLEDYSALTKDFPEFKAQKRAINKKMKEMYN
# B2: GST-AcrIIA17_Sga (other)
# chain: MKISVDSEKLLNEAINDFDIFGEDFNVYAIYSYREDYDFEYISDYVDADEPTRDEFETEEDYQEVMKDFKENLDSLKFTKHKKMTIADLVHELWEQNRIF
# notes: also called GST-AcrIIA7_Sga
# B3: GST-AcrIIA19_Ssim (other)
# chain: MKLIVEVEETNYKNLVNYTKLTNESHNILVNRLISEYITKPYELRLDLSERYSNRDLIEFKFMLIEYCKEALQDIKELANSDEAYETDEAFEAVFRQLFEEVISNPDTVLKAFHSYTSFLEENK
# What was measured:
# Myc-tagged Apo-SpyCas9 = target: T1, Myc-tagged Apo-SpyCas9 (Streptococcus pyogenes, UniProt Q99ZW2 1-1368); assay: GST-Acr immunoprecipitation from P. aeruginosa expressing Myc-tagged Apo-SpyCas9 without sgRNA; immunoblot (FIGS. 3D, 7C)
# T1 construct: not shown: 3xMyc tag at the C-terminus
# Myc-tagged SpyCas9-sgRNA [1] = target: T2, Myc-tagged SpyCas9-sgRNA (Streptococcus pyogenes, UniProt Q99ZW2 1-1368); assay: co-immunoprecipitation of Myc-tagged SpyCas9-sgRNA from P. aeruginosa co-expressing GST-Acr; immunoblot and Coomassie gel (FIG. 3B)
# T2 construct: not shown: 3xMyc tag at the C-terminus
# Myc-tagged SpyCas9-sgRNA [2] = target: T2, Myc-tagged SpyCas9-sgRNA; assay: discussion of the co-immunoprecipitation results; state of SpyCas9 not named there
# T2 sequence (Q99ZW2 whole entry): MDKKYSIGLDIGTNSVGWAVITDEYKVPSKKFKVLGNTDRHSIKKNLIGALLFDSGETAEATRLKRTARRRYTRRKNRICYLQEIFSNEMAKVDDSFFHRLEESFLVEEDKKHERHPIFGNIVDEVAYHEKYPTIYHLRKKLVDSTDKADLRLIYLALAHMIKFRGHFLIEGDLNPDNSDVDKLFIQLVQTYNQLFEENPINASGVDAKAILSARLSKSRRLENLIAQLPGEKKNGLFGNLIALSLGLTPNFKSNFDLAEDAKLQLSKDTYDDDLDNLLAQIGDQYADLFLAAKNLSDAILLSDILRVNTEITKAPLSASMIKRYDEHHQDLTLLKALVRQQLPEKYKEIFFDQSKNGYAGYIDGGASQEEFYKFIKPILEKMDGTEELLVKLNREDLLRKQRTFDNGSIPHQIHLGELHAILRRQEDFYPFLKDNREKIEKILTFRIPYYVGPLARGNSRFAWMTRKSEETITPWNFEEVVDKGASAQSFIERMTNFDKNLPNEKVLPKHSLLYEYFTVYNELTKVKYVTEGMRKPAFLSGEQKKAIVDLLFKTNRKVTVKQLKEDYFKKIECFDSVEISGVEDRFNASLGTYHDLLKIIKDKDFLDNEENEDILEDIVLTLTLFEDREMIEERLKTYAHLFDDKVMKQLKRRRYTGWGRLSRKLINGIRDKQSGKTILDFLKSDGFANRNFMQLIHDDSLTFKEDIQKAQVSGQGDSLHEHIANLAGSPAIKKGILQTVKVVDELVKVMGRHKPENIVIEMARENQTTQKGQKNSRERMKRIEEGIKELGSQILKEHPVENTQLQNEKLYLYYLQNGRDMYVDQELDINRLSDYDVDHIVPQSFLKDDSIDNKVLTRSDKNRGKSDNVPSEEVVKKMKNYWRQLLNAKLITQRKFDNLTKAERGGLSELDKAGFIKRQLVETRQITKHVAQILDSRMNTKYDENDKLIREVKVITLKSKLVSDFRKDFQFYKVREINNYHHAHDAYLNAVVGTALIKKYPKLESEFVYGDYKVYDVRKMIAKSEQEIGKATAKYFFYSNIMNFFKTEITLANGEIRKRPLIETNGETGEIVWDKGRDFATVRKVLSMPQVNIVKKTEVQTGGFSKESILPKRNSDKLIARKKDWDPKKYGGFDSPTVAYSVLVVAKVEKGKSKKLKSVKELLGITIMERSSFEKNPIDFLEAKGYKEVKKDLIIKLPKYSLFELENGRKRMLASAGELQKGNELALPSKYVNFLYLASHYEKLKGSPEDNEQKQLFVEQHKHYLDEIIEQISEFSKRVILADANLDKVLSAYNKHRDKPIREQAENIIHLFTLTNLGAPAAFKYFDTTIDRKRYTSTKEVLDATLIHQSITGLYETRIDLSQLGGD
# T1 sequence (Q99ZW2 whole entry): as above
Binder,binding result (Myc-tagged Apo-SpyCas9),binding result (Myc-tagged SpyCas9-sgRNA [1]),binding result (Myc-tagged SpyCas9-sgRNA [2])
B1,binds,binds,
B2,binds,,binds
B3,binds,,binds
